Assay results from patent US20110118131A1 (published 2011).

Assays:
Ep-CAM = target: T1, Ep-CAM (UniProt P16422 24-265, limits assumed); assay: Biacore, Fab periplasmic extract on immobilised Epcam
T1 sequence (looked up): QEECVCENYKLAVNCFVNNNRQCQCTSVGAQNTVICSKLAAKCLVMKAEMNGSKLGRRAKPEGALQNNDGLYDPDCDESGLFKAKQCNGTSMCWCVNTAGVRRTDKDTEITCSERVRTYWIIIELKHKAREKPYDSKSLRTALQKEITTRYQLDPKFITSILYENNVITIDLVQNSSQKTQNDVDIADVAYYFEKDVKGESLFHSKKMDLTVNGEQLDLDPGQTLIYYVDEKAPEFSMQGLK

IL-1β = IL-1β (UniProt P01584 117-269); assay: Biacore, Fab periplasmic extract on IL-1β

Binder	fold difference in affinity vs original (IL-1β) [fold]	also measured
ING-1 Fab, heavy chain A102L (Fab, V domains shown, Fab in periplasmic extract) VH: QIQLVQSGPELKKPGETVKISCKASGYTFTKYGMNWVKQAPGKGLKWMGWINTYTEEPTYGDDFKGRFAFSLETSASTANLQINNLKSEDTATYFCARFGSLVDYWGQGTSVTVSS VL: DIVMTQAAFSNPVTLGTSGSISCRSSKSLLHSNGITYLYWYLQKPGQSPQLLIYQMSNLASGVPDRFSSSGSGTDFTLRISRVEAEDVGVYYCAQNLELPRTFGGGTKLEMKR	–	binding result (Ep-CAM): no binding
ING-1 Fab, heavy chain D104A (Fab, V domains shown, Fab in periplasmic extract) VH: QIQLVQSGPELKKPGETVKISCKASGYTFTKYGMNWVKQAPGKGLKWMGWINTYTEEPTYGDDFKGRFAFSLETSASTANLQINNLKSEDTATYFCARFGSAVAYWGQGTSVTVSS VL: DIVMTQAAFSNPVTLGTSGSISCRSSKSLLHSNGITYLYWYLQKPGQSPQLLIYQMSNLASGVPDRFSSSGSGTDFTLRISRVEAEDVGVYYCAQNLELPRTFGGGTKLEMKR	–	binding result (Ep-CAM): no binding
ING-1 Fab, heavy chain D104L (Fab, V domains shown, Fab in periplasmic extract) VH: QIQLVQSGPELKKPGETVKISCKASGYTFTKYGMNWVKQAPGKGLKWMGWINTYTEEPTYGDDFKGRFAFSLETSASTANLQINNLKSEDTATYFCARFGSAVLYWGQGTSVTVSS VL: DIVMTQAAFSNPVTLGTSGSISCRSSKSLLHSNGITYLYWYLQKPGQSPQLLIYQMSNLASGVPDRFSSSGSGTDFTLRISRVEAEDVGVYYCAQNLELPRTFGGGTKLEMKR	–	binding result (Ep-CAM): no binding
XPA23 light chain P95G (Fab, V domains shown, Single light chain substitution; Fab in periplasmic extract; also called C5A (XPA23) P95G) VH: EVQLLESGGGLVQPGGSLRLSCAASGFTFSKYFMFWVRQAPGKGLEWVSVISPSGGMTRYADSVKGRFTISRDNSKNTLYLQMNSLRAEDTAVYYCARVGYGGNSDYWGQGTLVTVSS VL: DIQMTQSPSSVSASVGDRLTIICRASQDINRWLAWYQQTPGNAPKLLIHSATSLQSGVPSRFSGSGSGTDFTLTINSLQPEDFATYYCQQADSFGLTFGGGTKVEIK	–	binding result (IL-1β): no binding
XPA23 light chain P95I (Fab, V domains shown, Single light chain substitution; Fab in periplasmic extract; also called C5A (XPA23) P95I) VH: EVQLLESGGGLVQPGGSLRLSCAASGFTFSKYFMFWVRQAPGKGLEWVSVISPSGGMTRYADSVKGRFTISRDNSKNTLYLQMNSLRAEDTAVYYCARVGYGGNSDYWGQGTLVTVSS VL: DIQMTQSPSSVSASVGDRLTIICRASQDINRWLAWYQQTPGNAPKLLIHSATSLQSGVPSRFSGSGSGTDFTLTINSLQPEDFATYYCQQADSFILTFGGGTKVEIK	–	binding result (IL-1β): no binding
XPA23 light chain P95L (Fab, V domains shown, Single light chain substitution; Fab in periplasmic extract; also called C5A (XPA23) P95L) VH: EVQLLESGGGLVQPGGSLRLSCAASGFTFSKYFMFWVRQAPGKGLEWVSVISPSGGMTRYADSVKGRFTISRDNSKNTLYLQMNSLRAEDTAVYYCARVGYGGNSDYWGQGTLVTVSS VL: DIQMTQSPSSVSASVGDRLTIICRASQDINRWLAWYQQTPGNAPKLLIHSATSLQSGVPSRFSGSGSGTDFTLTINSLQPEDFATYYCQQADSFLLTFGGGTKVEIK	–	binding result (IL-1β): no binding
XPA23 light chain P95T (Fab, V domains shown, Single light chain substitution; Fab in periplasmic extract; also called C5A (XPA23) P95T) VH: EVQLLESGGGLVQPGGSLRLSCAASGFTFSKYFMFWVRQAPGKGLEWVSVISPSGGMTRYADSVKGRFTISRDNSKNTLYLQMNSLRAEDTAVYYCARVGYGGNSDYWGQGTLVTVSS VL: DIQMTQSPSSVSASVGDRLTIICRASQDINRWLAWYQQTPGNAPKLLIHSATSLQSGVPSRFSGSGSGTDFTLTINSLQPEDFATYYCQQADSFTLTFGGGTKVEIK	–	binding result (IL-1β): no binding
XPA23 light chain P95V (Fab, V domains shown, Single light chain substitution; Fab in periplasmic extract; also called C5A (XPA23) P95V) VH: EVQLLESGGGLVQPGGSLRLSCAASGFTFSKYFMFWVRQAPGKGLEWVSVISPSGGMTRYADSVKGRFTISRDNSKNTLYLQMNSLRAEDTAVYYCARVGYGGNSDYWGQGTLVTVSS VL: DIQMTQSPSSVSASVGDRLTIICRASQDINRWLAWYQQTPGNAPKLLIHSATSLQSGVPSRFSGSGSGTDFTLTINSLQPEDFATYYCQQADSFVLTFGGGTKVEIK	–	binding result (IL-1β): no binding
XPA23 light chain S53A (Fab, V domains shown, Single light chain substitution; Fab in periplasmic extract; also called C5A (XPA23) S53A) VH: EVQLLESGGGLVQPGGSLRLSCAASGFTFSKYFMFWVRQAPGKGLEWVSVISPSGGMTRYADSVKGRFTISRDNSKNTLYLQMNSLRAEDTAVYYCARVGYGGNSDYWGQGTLVTVSS VL: DIQMTQSPSSVSASVGDRLTIICRASQDINRWLAWYQQTPGNAPKLLIHSATALQSGVPSRFSGSGSGTDFTLTINSLQPEDFATYYCQQADSFPLTFGGGTKVEIK	1.07	–
XPA23 light chain S53G (Fab, V domains shown, Single light chain substitution; Fab in periplasmic extract; also called C5A (XPA23) S53G) VH: EVQLLESGGGLVQPGGSLRLSCAASGFTFSKYFMFWVRQAPGKGLEWVSVISPSGGMTRYADSVKGRFTISRDNSKNTLYLQMNSLRAEDTAVYYCARVGYGGNSDYWGQGTLVTVSS VL: DIQMTQSPSSVSASVGDRLTIICRASQDINRWLAWYQQTPGNAPKLLIHSATGLQSGVPSRFSGSGSGTDFTLTINSLQPEDFATYYCQQADSFPLTFGGGTKVEIK	1.03	–
XPA23 light chain S53I (Fab, V domains shown, Single light chain substitution; Fab in periplasmic extract; also called C5A (XPA23) S53I) VH: EVQLLESGGGLVQPGGSLRLSCAASGFTFSKYFMFWVRQAPGKGLEWVSVISPSGGMTRYADSVKGRFTISRDNSKNTLYLQMNSLRAEDTAVYYCARVGYGGNSDYWGQGTLVTVSS VL: DIQMTQSPSSVSASVGDRLTIICRASQDINRWLAWYQQTPGNAPKLLIHSATILQSGVPSRFSGSGSGTDFTLTINSLQPEDFATYYCQQADSFPLTFGGGTKVEIK	1.42	–
XPA23 light chain S53L (Fab, V domains shown, Single light chain substitution; Fab in periplasmic extract; also called C5A (XPA23) S53L) VH: EVQLLESGGGLVQPGGSLRLSCAASGFTFSKYFMFWVRQAPGKGLEWVSVISPSGGMTRYADSVKGRFTISRDNSKNTLYLQMNSLRAEDTAVYYCARVGYGGNSDYWGQGTLVTVSS VL: DIQMTQSPSSVSASVGDRLTIICRASQDINRWLAWYQQTPGNAPKLLIHSATLLQSGVPSRFSGSGSGTDFTLTINSLQPEDFATYYCQQADSFPLTFGGGTKVEIK	0.99	–
XPA23 light chain S53P (Fab, V domains shown, Single light chain substitution; Fab in periplasmic extract; also called C5A (XPA23) S53P) VH: EVQLLESGGGLVQPGGSLRLSCAASGFTFSKYFMFWVRQAPGKGLEWVSVISPSGGMTRYADSVKGRFTISRDNSKNTLYLQMNSLRAEDTAVYYCARVGYGGNSDYWGQGTLVTVSS VL: DIQMTQSPSSVSASVGDRLTIICRASQDINRWLAWYQQTPGNAPKLLIHSATPLQSGVPSRFSGSGSGTDFTLTINSLQPEDFATYYCQQADSFPLTFGGGTKVEIK	4.92	–
XPA23 light chain S53V (Fab, V domains shown, Single light chain substitution; Fab in periplasmic extract; also called C5A (XPA23) S53V) VH: EVQLLESGGGLVQPGGSLRLSCAASGFTFSKYFMFWVRQAPGKGLEWVSVISPSGGMTRYADSVKGRFTISRDNSKNTLYLQMNSLRAEDTAVYYCARVGYGGNSDYWGQGTLVTVSS VL: DIQMTQSPSSVSASVGDRLTIICRASQDINRWLAWYQQTPGNAPKLLIHSATVLQSGVPSRFSGSGSGTDFTLTINSLQPEDFATYYCQQADSFPLTFGGGTKVEIK	1.42	–
XPA23 light chain S93A (Fab, V domains shown, Single light chain substitution; Fab in periplasmic extract; also called C5A (XPA23) S93A) VH: EVQLLESGGGLVQPGGSLRLSCAASGFTFSKYFMFWVRQAPGKGLEWVSVISPSGGMTRYADSVKGRFTISRDNSKNTLYLQMNSLRAEDTAVYYCARVGYGGNSDYWGQGTLVTVSS VL: DIQMTQSPSSVSASVGDRLTIICRASQDINRWLAWYQQTPGNAPKLLIHSATSLQSGVPSRFSGSGSGTDFTLTINSLQPEDFATYYCQQADAFPLTFGGGTKVEIK	1.16	–
XPA23 light chain S93G (Fab, V domains shown, Single light chain substitution; Fab in periplasmic extract; also called C5A (XPA23) S93G) VH: EVQLLESGGGLVQPGGSLRLSCAASGFTFSKYFMFWVRQAPGKGLEWVSVISPSGGMTRYADSVKGRFTISRDNSKNTLYLQMNSLRAEDTAVYYCARVGYGGNSDYWGQGTLVTVSS VL: DIQMTQSPSSVSASVGDRLTIICRASQDINRWLAWYQQTPGNAPKLLIHSATSLQSGVPSRFSGSGSGTDFTLTINSLQPEDFATYYCQQADGFPLTFGGGTKVEIK	0.75	–
XPA23 light chain S93I (Fab, V domains shown, Single light chain substitution; Fab in periplasmic extract; also called C5A (XPA23) S93I) VH: EVQLLESGGGLVQPGGSLRLSCAASGFTFSKYFMFWVRQAPGKGLEWVSVISPSGGMTRYADSVKGRFTISRDNSKNTLYLQMNSLRAEDTAVYYCARVGYGGNSDYWGQGTLVTVSS VL: DIQMTQSPSSVSASVGDRLTIICRASQDINRWLAWYQQTPGNAPKLLIHSATSLQSGVPSRFSGSGSGTDFTLTINSLQPEDFATYYCQQADIFPLTFGGGTKVEIK	1.35	–
XPA23 light chain S93L (Fab, V domains shown, Single light chain substitution; Fab in periplasmic extract; also called C5A (XPA23) S93L) VH: EVQLLESGGGLVQPGGSLRLSCAASGFTFSKYFMFWVRQAPGKGLEWVSVISPSGGMTRYADSVKGRFTISRDNSKNTLYLQMNSLRAEDTAVYYCARVGYGGNSDYWGQGTLVTVSS VL: DIQMTQSPSSVSASVGDRLTIICRASQDINRWLAWYQQTPGNAPKLLIHSATSLQSGVPSRFSGSGSGTDFTLTINSLQPEDFATYYCQQADLFPLTFGGGTKVEIK	1.08	–
XPA23 light chain S93P (Fab, V domains shown, Single light chain substitution; Fab in periplasmic extract; also called C5A (XPA23) S93P) VH: EVQLLESGGGLVQPGGSLRLSCAASGFTFSKYFMFWVRQAPGKGLEWVSVISPSGGMTRYADSVKGRFTISRDNSKNTLYLQMNSLRAEDTAVYYCARVGYGGNSDYWGQGTLVTVSS VL: DIQMTQSPSSVSASVGDRLTIICRASQDINRWLAWYQQTPGNAPKLLIHSATSLQSGVPSRFSGSGSGTDFTLTINSLQPEDFATYYCQQADPFPLTFGGGTKVEIK	–	binding result (IL-1β): no binding
XPA23 light chain S93T (Fab, V domains shown, Single light chain substitution; Fab in periplasmic extract; also called C5A (XPA23) S93T) VH: EVQLLESGGGLVQPGGSLRLSCAASGFTFSKYFMFWVRQAPGKGLEWVSVISPSGGMTRYADSVKGRFTISRDNSKNTLYLQMNSLRAEDTAVYYCARVGYGGNSDYWGQGTLVTVSS VL: DIQMTQSPSSVSASVGDRLTIICRASQDINRWLAWYQQTPGNAPKLLIHSATSLQSGVPSRFSGSGSGTDFTLTINSLQPEDFATYYCQQADTFPLTFGGGTKVEIK	1.47	–
XPA23 light chain S93V (Fab, V domains shown, Single light chain substitution; Fab in periplasmic extract; also called C5A (XPA23) S93V) VH: EVQLLESGGGLVQPGGSLRLSCAASGFTFSKYFMFWVRQAPGKGLEWVSVISPSGGMTRYADSVKGRFTISRDNSKNTLYLQMNSLRAEDTAVYYCARVGYGGNSDYWGQGTLVTVSS VL: DIQMTQSPSSVSASVGDRLTIICRASQDINRWLAWYQQTPGNAPKLLIHSATSLQSGVPSRFSGSGSGTDFTLTINSLQPEDFATYYCQQADVFPLTFGGGTKVEIK	3.81	–
